Data from article PMC5430663, “Distant Phe345 mutation compromises the stability and activity of Mycobacterium tuberculosis isocitrate lyase by modulating its structural flexibility” (Scientific Reports, 2017).
Positions count from the first letter of the chain named. In names and notes the source's numbering stands.

B1: Mycobacterium tuberculosis isocitrate lyase (MtbICL) (enzyme)
chain: MSVVGTPKSAEQIQQEWDTNPRWKDVTRTYSAEDVVALQGSVVEEHTLARRGAEVLWEQLHDLEWVNALGALTGNMAVQQVRAGLKAIYLSGWQVAGDANLSGHTYPDQSLYPANSVPQVVRRINNALQRADQIAKIEGDTSVENWLAPIVADGEAGFGGALNVYELQKALIAAGVAGSHWEDQLASEKKCGHLGGKVLIPTQQHIRTLTSARLAADVADVPTVVIARTDAEAATLITSDVDERDQPFITGERTREGFYRTKNGIEPCIARAKAYAPFADLIWMETGTPDLEAARQFSEAVKAEYPDQMLAYNCSPSFNWKKHLDDATIAKFQKELAAMGFKFQFITLAGFHALNYSMFDLAYGYAQNQMSAYVELQEREFAAEERGYTATKHQREVGAGYFDRIATTVDPNSSTTALTGSTEEGQFH
notes: Isocitrate lyase of Mycobacterium tuberculosis, full-length, 428 amino acids per monomer; also called native MtbICL; native protein
B2: MtbICL F345A mutant (MtbICL_(F345A)) (enzyme)
chain: B1 chain with F345A
notes: A small fraction formed aggregate on SEC; also called mutant protein

Biological target: the molecule itself
Assay: SEC; Superdex 200 10/300 GL on AKTA-FPLC, 50 mM phosphate buffer pH 8.0, 100 mM NaCl, 0.5 mL/min, 25 °C; mass read against standard markers (ferritin, catalase, aldolase, ovalbumin)

Row | Protein | stoichiometry N
1 | B1 | 4
2 | B2 | 4
